System: Bacillus subtilis
Experiment: cleaved RNA product abundance (RNA/gDNA barcode ratio) relative to median wild-type variant (ratio to wild type); higher = more accumulation of the downstream cleavage product
Details: cleavage site: cggR-gapA (positions -7 to +36 mutated)
Summary of the method: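 Reporter mRNAs (truncated aprE or tetM) carrying barcoded, mutagenized RNase Y cleavage-site windows were made from oligos with a 9% error rate and integrated into the B. subtilis chromosome. Cultures grew in LB at 37°C from OD600 0.0003 to 0.3. Cleaved RNA was gel-selected, reverse transcribed and barcode-sequenced alongside genomic DNA barcodes, with UMI collapsing. Cleaved product abundance is the RNA:gDNA barcode ratio per variant, scaled to the median wild-type variant.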

[1] = experiment (reporter, strain, medium): exp 4a: truncated aprE reporter, strain BJT201 with 2% xylose (RNase J1 expressed)
[2] = experiment (reporter, strain, medium): exp 2b: truncated aprE reporter, strain BJT200
[3] = experiment (reporter, strain, medium): exp 6: tetM reporter, strain 168

## ACAGACGAAGGAGCCGCAAAGAAGTTATAAAGGGATGAATAATCCCTCAATATAAATAACTCTCACTTATTTAAA
[1]
  cleaved RNA product abundance: 0.424

## ACAGACGAAGGAGCCGCAAAGAAGTTATAAAGGGATGAATAATCCCTCAATATAAATATATCTCACTTATTTAAA
[1]
  cleaved RNA product abundance: 0.419

## ACAGACGAAGGAGCCGCAAAGAAGTTATAAAGGGATGAATAATCCCTCAATATAAATATCTCTCACTTATTTAAA
[2]
  cleaved RNA product abundance: 0.363
[1]
  cleaved RNA product abundance: 0.454
[3]
  cleaved RNA product abundance: 0.4

## ACAGACGAAGGAGCCGCAAAGAAGTTATAAAGGGATGAATAATCCCTCAATATAAATATTTCTCACTTATTTAAA
[1]
  cleaved RNA product abundance: 0.51

## ACAGACGAAGGAGCCGCAAAGAAGTTATAAAGGGATGAATAATCCCTCAATATAAATTTCTCTCACTTATTTAAA
[1]
  cleaved RNA product abundance: 0.387

## ACAGACGAAGGAGCCGCAAAGAAGTTATAAAGGGATGAATAATCCCTCAATATAATTATCTCTCACTTATTTAAA
[1]
  cleaved RNA product abundance: 0.171

## ACAGACGAAGGAGCCGCAAAGAAGTTATAAAGGGATGAATAATCCCTCAATATAGATATCTCTCACTTATTTAAA
[2]
  cleaved RNA product abundance: 0.19
[1]
  cleaved RNA product abundance: 0.475

## ACAGACGAAGGAGCCGCAAAGAAGTTATAAAGGGATGAATAATCCCTCAATATATATATCTCTCACTTATTTAAA
[2]
  cleaved RNA product abundance: 0.359
[1]
  cleaved RNA product abundance: 0.58

## ACAGACGAAGGAGCCGCAAAGAAGTTATAAAGGGATGAATAATCCCTCAATATTAATATCTCTCACTTATTTAAA
[1]
  cleaved RNA product abundance: 0.105

## ACAGACGAAGGAGCCGCAAAGAAGTTATAAAGGGATGAATAATCCCTCAATTTAAATATCTCTCACTTATTTAAA
[2]
  cleaved RNA product abundance: 0.146
[1]
  cleaved RNA product abundance: 0.152

## ACAGACGAAGGAGCCGCAAAGAAGTTATAAAGGGATGAATAATCCCTCACTATAAATATCTCTCACTTATTTAAA
[1]
  cleaved RNA product abundance: 0.322

## ACAGACGAAGGAGCCGCAAAGAAGTTATAAAGGGATGAATAATCCCTCCATATAAATATCTCTCACTTATTTAAA
[1]
  cleaved RNA product abundance: 0.266

## ACAGACGAAGGAGCCGCAAAGAAGTTATAAAGGGATGAATAATCCCTCTATATAAATATCTCTCACTTATTTAAA
[1]
  cleaved RNA product abundance: 0.941

## ACAGACGAAGGAGCCGCAAAGAAGTTATAAAGGGATGAATAATCCCTGAATATAAATATCTCTCACTTATTTAAA
[1]
  cleaved RNA product abundance: 0.634

## ACAGACGAAGGAGCCGCAAAGAAGTTATAAAGGGATGAATAATCCCTTAATATAAATATCTCTCACTTATTTAAA
[2]
  cleaved RNA product abundance: 0.56
[1]
  cleaved RNA product abundance: 0.593

## ACAGACGAAGGAGCCGCAAAGAAGTTATAAAGGGATGAATAATCCGTCAATATAAATATCTCTCACTTATTTAAA
[2]
  cleaved RNA product abundance: 0.154

## ACAGACGAAGGAGCCGCAAAGAAGTTATAAAGGGATGAATAATCCTTCAATATAAATATCTCTCACTTATTTAAA
[2]
  cleaved RNA product abundance: 0.174
[1]
  cleaved RNA product abundance: 0.283

## ACAGACGAAGGAGCCGCAAAGAAGTTATAAAGGGATGAATAATCTCTCAATATAAATATCTCTCACTTATTTAAA
[1]
  cleaved RNA product abundance: 0.338

## ACAGACGAAGGAGCCGCAAAGAAGTTATAAAGGGATGAATAATGCCTCAATATAAATATCTCTCACTTATTTAAA
[2]
  cleaved RNA product abundance: 0.113

## ACAGACGAAGGAGCCGCAAAGAAGTTATAAAGGGATGAATAATTCCTCAATATAAATATCTCTCACTTATTTAAA
[1]
  cleaved RNA product abundance: 0.293

## ACAGACGAAGGAGCCGCAAAGAAGTTATAAAGGGATGAATACTCCCTCAATATAAATATCTCTCACTTATTTAAA
[1]
  cleaved RNA product abundance: 0.287

## ACAGACGAAGGAGCCGCAAAGAAGTTATAAAGGGATGAATATTCCCTCAATATAAATATCTCTCACTTATTTAAA
[1]
  cleaved RNA product abundance: 0.281

## ACAGACGAAGGAGCCGCAAAGAAGTTATAAAGGGATGAATGATCCCTCAATATAAATATCTCTCACTTATTTAAA
[2]
  cleaved RNA product abundance: 0.193
[1]
  cleaved RNA product abundance: 0.273

## ACAGACGAAGGAGCCGCAAAGAAGTTATAAAGGGATGAATTATCCCTCAATATAAATATCTCTCACTTATTTAAA
[2]
  cleaved RNA product abundance: 0.279
[1]
  cleaved RNA product abundance: 0.469

## ACAGACGAAGGAGCCGCAAAGAAGTTATAAAGGGATGACTAATCCCTCAATATAAATATCTCTCACTTATTTAAA
[1]
  cleaved RNA product abundance: 0.286
[3]
  cleaved RNA product abundance: 0.319

## ACAGACGAAGGAGCCGCAAAGAAGTTATAAAGGGATGCATAATCCCTCAATATAAATATCTCTCACTTATTTAAA
[2]
  cleaved RNA product abundance: 0.309
[1]
  cleaved RNA product abundance: 0.241

## ACAGACGAAGGAGCCGCAAAGAAGTTATAAAGGGATGTATAATCCCTCAATATAAATATCTCTCACTTATTTAAA
[2]
  cleaved RNA product abundance: 0.322
[1]
  cleaved RNA product abundance: 0.401

## ACAGACGAAGGAGCCGCAAAGAAGTTATAAAGGGATTAATAATCCCTCAATATAAATATCTCTCACTTATTTAAA
[2]
  cleaved RNA product abundance: 0.333
[1]
  cleaved RNA product abundance: 0.362

## ACAGACGAAGGAGCCGCAAAGAAGTTATAAAGGGCTGAATAATCCCTCAATATAAATATCTCTCACTTATTTAAA
[1]
  cleaved RNA product abundance: 0.286

## ACAGACGAAGGAGCCGCAAAGAAGTTATAAAGGGGTGAATAATCCCTCAATATAAATATCTCTCACTTATTTAAA
[1]
  cleaved RNA product abundance: 0.422

## ACAGACGAAGGAGCCGCAAAGAAGTTATAAAGGGTTGAATAATCCCTCAATATAAATATCTCTCACTTATTTAAA
[2]
  cleaved RNA product abundance: 0.163
[1]
  cleaved RNA product abundance: 0.24

## ACAGACGAAGGAGCCGCAAAGAAGTTATAAAGGTATGAATAATCCCTCAATATAAATATCTCTCACTTATTTAAA
[2]
  cleaved RNA product abundance: 0.0925
[1]
  cleaved RNA product abundance: 0.0975

## ACAGACGAAGGAGCCGCAAAGAAGTTATAAAGTGATGAATAATCCCTCAATATAAATATCTCTCACTTATTTAAA
[2]
  cleaved RNA product abundance: 0.0907
[1]
  cleaved RNA product abundance: 0.117

## ACAGACGAAGGAGCCGCAAAGAAGTTATAAATGGATGAATAATCCCTCAATATAAATATCTCTCACTTATTTAAA
[2]
  cleaved RNA product abundance: 0.113
[1]
  cleaved RNA product abundance: 0.165

## ACAGACGAAGGAGCCGCAAAGAAGTTATAAGGGGATGAATAATCCCTCAATATAAATATCTCTCACTTATTTAAA
[1]
  cleaved RNA product abundance: 0.49

## ACAGACGAAGGAGCCGCAAAGAAGTTATAATGGGATGAATAATCCCTCAATATAAATATCTCTCACTTATTTAAA
[2]
  cleaved RNA product abundance: 0.29
[1]
  cleaved RNA product abundance: 0.293

## ACAGACGAAGGAGCCGCAAAGAAGTTATATAGGGATGAATAATCCCTCAATATAAATATCTCTCACTTATTTAAA
[1]
  cleaved RNA product abundance: 0.664

## ACAGACGAAGGAGCCGCAAAGAAGTTATCAAATGATGAATAATCCCTCAATATAAATATCTCTCACTTATTTAAA
[1]
  cleaved RNA product abundance: 0.123

## ACAGACGAAGGAGCCGCAAAGAAGTTATCAACGGATGAATAATCCCTCAATATAAATATCTCTCACTTATTTAAA
[1]
  cleaved RNA product abundance: 0.15

## ACAGACGAAGGAGCCGCAAAGAAGTTATCAAGAGATGAATAATCCCTCAATATAAATATCTCTCACTTATTTAAA
[2]
  cleaved RNA product abundance: 0.0893
[1]
  cleaved RNA product abundance: 0.116

## ACAGACGAAGGAGCCGCAAAGAAGTTATCAAGCGATGAATAATCCCTCAATATAAATATCTCTCACTTATTTAAA
[1]
  cleaved RNA product abundance: 0.0711

## ACAGACGAAGGAGCCGCAAAGAAGTTATCAAGGAATGAATAATCCCTCAATATAAATATCTCTCACTTATTTAAA
[1]
  cleaved RNA product abundance: 0.11

## ACAGACGAAGGAGCCGCAAAGAAGTTATCAAGGCATGAATAATCCCTCAATATAAATATCTCTCACTTATTTAAA
[1]
  cleaved RNA product abundance: 0.0787

## ACAGACGAAGGAGCCGCAAAGAAGTTATCAAGGGATAAATAATCCCTCAATATAAATATCTCTCACTTATTTAAA
[1]
  cleaved RNA product abundance: 0.234

## ACAGACGAAGGAGCCGCAAAGAAGTTATCAAGGGATCAATAATCCCTCAATATAAATATCTCTCACTTATTTAAA
[2]
  cleaved RNA product abundance: 0.24

## ACAGACGAAGGAGCCGCAAAGAAGTTATCAAGGGATGAAAAATCCCTCAATATAAATATCTCTCACTTATTTAAA
[1]
  cleaved RNA product abundance: 0.272

## ACAGACGAAGGAGCCGCAAAGAAGTTATCAAGGGATGAATAAACCCTCAATATAAATATCTCTCACTTATTTAAA
[2]
  cleaved RNA product abundance: 0.148
[1]
  cleaved RNA product abundance: 0.205

## ACAGACGAAGGAGCCGCAAAGAAGTTATCAAGGGATGAATAATACCTCAATATAAATATCTCTCACTTATTTAAA
[2]
  cleaved RNA product abundance: 0.149
[1]
  cleaved RNA product abundance: 0.132

## ACAGACGAAGGAGCCGCAAAGAAGTTATCAAGGGATGAATAATCACTCAATATAAATATCTCTCACTTATTTAAA
[2]
  cleaved RNA product abundance: 0.123
[1]
  cleaved RNA product abundance: 0.139

## ACAGACGAAGGAGCCGCAAAGAAGTTATCAAGGGATGAATAATCCATCAATATAAATATCTCTCACTTATTTAAA
[1]
  cleaved RNA product abundance: 0.321

## ACAGACGAAGGAGCCGCAAAGAAGTTATCAAGGGATGAATAATCCCTAAATATAAATATCTCTCACTTATTTAAA
[1]
  cleaved RNA product abundance: 0.333

## ACAGACGAAGGAGCCGCAAAGAAGTTATCAAGGGATGAATAATCCCTCAAAATAAATATCTCTCACTTATTTAAA
[2]
  cleaved RNA product abundance: 0.2
[1]
  cleaved RNA product abundance: 0.289

## ACAGACGAAGGAGCCGCAAAGAAGTTATCAAGGGATGAATAATCCCTCAATATAAATATCTCTCACTTATTTAAA
[2]
  cleaved RNA product abundance: 0.27
[1]
  cleaved RNA product abundance: 0.385
[3]
  cleaved RNA product abundance: 0.34

## ACAGACGAAGGAGCCGCAAAGAAGTTATCAAGGGATGAATAATCCCTCAATATAAATGTCTCTCACTTATTTAAA
[2]
  cleaved RNA product abundance: 0.192
[1]
  cleaved RNA product abundance: 0.206

## ACAGACGAAGGAGCCGCAAAGAAGTTATCAAGGGATGAATAATCCCTCAATATAATTATCTCTCACTTATTTAAA
[1]
  cleaved RNA product abundance: 0.218

## ACAGACGAAGGAGCCGCAAAGAAGTTATCAAGGGATGAATAATCCCTCACTATAAATATCTCTCACTTATTTAAA
[1]
  cleaved RNA product abundance: 0.306

## ACAGACGAAGGAGCCGCAAAGAAGTTATCAAGGGATGAATAATCCCTCATTATAAATATCTCTCACTTATTTAAA
[2]
  cleaved RNA product abundance: 0.216

## ACAGACGAAGGAGCCGCAAAGAAGTTATCAAGGGATGAATAATCGCTCAATATAAATATCTCTCACTTATTTAAA
[1]
  cleaved RNA product abundance: 0.0908

## ACAGACGAAGGAGCCGCAAAGAAGTTATCAAGGGATGAATAATGCCTCAATATAAATATCTCTCACTTATTTAAA
[1]
  cleaved RNA product abundance: 0.19

Source: the supplement of paper PMC11780869
